Key:
[1] = target: human IL-8 type A receptor (IL8R-A), encoded by clone pRK5B.il8r1.1 (human); assay: competition of 125I-IL-8 by unlabelled IL-8 on COS cells transfected with pRK5B.il8r1.1, Scatchard analysis
human neutrophils = assay: competition of 125I-IL-8 by unlabelled IL-8 on human neutrophils, Scatchard analysis

Kd [1]: 3.6 nM
Kd (human neutrophils): 1.1 nM
Substance: recombinant human IL-8 (72 amino acid form, made in E. coli) (from UniProt P10145) (ligand)

— patent publication US5922541
